This is an account of results in patent publication US20140287419A1, “Compositions Having Dicamba Decarboxylase Activity and Methods of Use” (priority 2013, published 2014).

Data set [1] can be described thus: Dicamba decarboxylation activity of computationally designed protein variants. As to conditions: native protein or designed variant versus parent.
Data set [2] is described as follows: Detection of 2,5-DCP product by GC/MS. It counts as biochemical. The following applies: purified protein. The method, then: The decarboxylated and demethylated product of dicamba, 2,5-dichloro phenol or 2,5-DCP (FIG. 1E) is measured using a GC/MS analytical procedure with either liquid injection after liquid/liquid extraction using toluene as the extraction solvent or gas injection using head space method. The head space sample analysis is carried out on an Agilent GC/MS system with a 6890A GC, a 5973N MSD and a CTC CombiPAL auto-sampler or with a 7890A GC, a 5975C MSD and an Agilent GC Sampler 80 auto-sampler with Phenomenex ZB-MultiResidue-1 column (30 m length, 0.25 mm diameter, 0.25 um film) or equivalent. GC/MS parameters are: GC inlet temperature, 200° C.; Carry gas, helium in constant flow mode (1.2 mL/min); Oven temperature program, 70° C. for 1 min and then ramp to 275° C. at 40° C./min. […] The reaction vial is transferred to a agitator for incubation at 90° C. for 4 min at 500 rpm. With a syringe preheated at 110° C., 1000 uL of head space is injected with sample fill speed at 100 uL/sec. A 2-mm diameter liner is used in sample inlet. The MS data acquisition is done in SIM (selected ion monitoring) mode. The positive ion at M/Z 162 for the molecular ion of 2,-5-DCP is monitored at retention time of 4.06 min. Solvent delay for MS acquisition is set at 3 min. GC/MS parameters for liquid sample analysis are the same as those for head space analysis, except that the volume of liquid injection is 1 uL.

Data set [3] can be described thus: 14C assay with purified protein (14CO2 captured on Ca(OH)2 filter paper). The class given is biochemical. The following applies: [14C]-carboxyl-labeled dicamba.
Data set [4] in a line: Detection of 4-chloro-3-methoxy phenol product by LC-MS/MS. The class given is biochemical. As to conditions: purified protein. The procedure:
The decarboxylated and chloro hydrolyzed product, 4-chloro-3-methoxy phenol (FIG. 1D), is measured using a LC-MS/MS analytical procedure. […] 10 ul is removed from the reaction mixture and mixed with 90 ul pre-chilled methanol followed by centrifugation at 14,000 rpm for 15 min at 4° C. 10 ul of the supernatant is then transferred into 170 ul ddH2O to achieve 5% methanol solution for injection. 50 ul of the prepared sample is injected into a 4000 Q Trap LC-MS/MS system for sample analysis. LC-MS/MS parameters are: Mobile Phase A, 2 mM ammonium acetate in water; Mobile Phase B, 2 mM ammonium acetate in methanol; Column, Aquasil, 100×2.1 mm, 3 μm, C18 column; Flow Rate, 0.6 ml/min. The MS/MS fragment 157/142 which is common to 4-chloro-3-methoxy phenol, 2-chloro-5-methoxy phenol, and 3-chloro-5-methoxy phenol is monitored at a retention time of 2.88 min.

A short description of data set [5]: Saturation mutagenesis of SEQ ID NO:109, dicamba decarboxylation activity of point mutants.
A short description of data set [6]: 14C assay with IPTG-induced recombinant E. coli cells (14CO2 capture from [14C]-carboxyl-labeled dicamba). The following applies: E. coli cell assay, 108 sequences tested.
The mark [7] stands for this setting: dicamba decarboxylation activity of point mutants of SEQ ID NO: 109 (NNK saturation mutagenesis), relative to the unchanged template.
Setting [8] is: dicamba decarboxylation activity of single point mutants of SEQ ID NO:109, relative to unchanged template.

Substitutions are numbered along the chain they refer to. In names and notes the source's numbering stands. Entries after “also recorded” stand apart in the source; their conditions may differ.

B1: SEQ ID NO:116: Design variant of SEQ ID NO: 41; new 35 amino acid N-terminal loop (protein)
chain: MAQGKVALEEHFAIPETLQDAAGFVPGDYWKELQHRLLDIQDRRVRLMDEHGIETMILSLNAPAVQAIADSTRANETARRANDFLAEQVAKQPTRFRGFAALPMQDPELAARELERCVKELGFVGALVNGFSQDNRSAVPLYYDMAQYWPFWETVQALDVPFYLHPRNPLPSDARIYDGHAWLLGPTWAFGQETAVHALRLMGSGLFDKYPALKIILGHMGEGLPYSMWRIDHRNAWIKTTPKYPAKRKIVDYFNENFYLTTSGNFRTQTLIDAILEIGADRILFSTDWPFENIDHAADWFENTSISEADRKKIGWGNAQNLFKLNR
modifications: Dicamba decarboxylase variant clone DC.30.007
notes: new 35 amino acid N-terminal loop
Regarding B1, the “Dicamba Decarboxylase Activity” value in data set [1] is “displays an increase in dicamba decarboxylase activity”. Also, the “2,5-DCP product” value in data set [2] is given as “detected”. In addition, the CO2 product entry in data set [3] is listed as “detected”. In addition, the 4-chloro-3-methoxy phenol product entry in data set [4] was “detected”.

B2: SEQ ID NO:109: Design variant of SEQ ID NO: 1; designed mutation N235V (protein)
chain: MAQGKVALEEHFAIPETLQDSAGFVPGDYWKELQHRLLDIQDTRLKLMDAHGIETMILSLNAPAVQAIPDRRKAIEIARRANDVLAEECAKRPDRFLAFAALPLQDPDAATEELQRCVNDLGFVGALVNGFSQEGDGQTPLYYDLPQYRPFWGEVEKLDVPFYLHPRNPLPQDSRIYDGHPWLLGPTWAFAQETAVHALRLMASGLFDEHPRLNIILGHMGEGLPYMMWRIDHRVAWVKLPPRYPAKRRFMDYFNENFHITTSGNFRTQTLIDAILEIGADRILFSTDWPFENIDHASDWFNATSIAEADRVKIGRTNARRLFKLDGA
modifications: Dicamba decarboxylase variant clone DC.4.032
notes: designed mutation N235V
For B2, in data set [1], the “Dicamba Decarboxylase Activity” value is “more active than their parent sequence; also recorded: displays an increase in dicamba decarboxylase activity”. The “2,5-DCP product” value in data set [2] is listed as “detected”. In data set [3], the CO2 product entry was “detected”. Further, the 4-chloro-3-methoxy phenol product entry in data set [4] was “detected”.

B3: SEQ ID NO:113: Design variant of SEQ ID NO: 1 (protein)
chain: B2 chain with W30L, Q34F
modifications: Dicamba decarboxylase variant clone DC.4.114
As to B3, the “Dicamba Decarboxylase Activity” value in data set [1] is on record as “displays an increase in dicamba decarboxylase activity”. Moreover, the “2,5-DCP product” value in data set [2] is listed as “detected”. The CO2 product entry in data set [3] was “detected”. Besides, in data set [4], the 4-chloro-3-methoxy phenol product result is given as “detected”.

B4: N61S: point mutation N61S of SEQ ID NO:109 (protein)
chain: B2 chain with N61S
modifications: Dicamba decarboxylase variant clone DC.4.032
With B4, the “Average Activity (Fold of SEQ ID NO: 109)” value in data set [5] (setting [7]) and in data set [5] (setting [8]) was 2.5 Fold of SEQ ID NO: 109 throughout.

B5: A64S: point mutation A64S of SEQ ID NO:109 (protein)
chain: B2 chain with A64S
modifications: Dicamba decarboxylase variant clone DC.4.032
On to B5, for which the “Average Activity (Fold of SEQ ID NO: 109)” value in data set [5] (setting [7]) was 2.1 Fold of SEQ ID NO: 109.

B6: N214Q: point mutation N214Q of SEQ ID NO:109 (protein)
chain: B2 chain with N214Q
modifications: Dicamba decarboxylase variant clone DC.4.032
Turning to B6, the “Average Activity (Fold of SEQ ID NO: 109)” value in data set [5] (setting [7]) and in data set [5] (setting [8]) was 1.8 Fold of SEQ ID NO: 109 in each case.

B7: A64G: point mutation A64G of SEQ ID NO:109 (protein)
chain: B2 chain with A64G
modifications: Dicamba decarboxylase variant clone DC.4.032
Turning to B7, the “Average Activity (Fold of SEQ ID NO: 109)” value in data set [5] (setting [7]) and in data set [5] (setting [8]) was 2.6 Fold of SEQ ID NO: 109 throughout.

B8: N61G: point mutation N61G of SEQ ID NO:109 (protein)
chain: B2 chain with N61G
modifications: Dicamba decarboxylase variant clone DC.4.032
Turning to B8, in data set [5] (setting [7]), the “Average Activity (Fold of SEQ ID NO: 109)” value is 2.3 Fold of SEQ ID NO: 109.

B9: P63V: point mutation P63V of SEQ ID NO:109 (protein)
chain: B2 chain with P63V
modifications: Dicamba decarboxylase variant clone DC.4.032
B9: the “Average Activity (Fold of SEQ ID NO: 109)” value in data set [5] (setting [7]) is given as 1.8 Fold of SEQ ID NO: 109.

B10: SEQ ID NO:110: Design variant of SEQ ID NO: 1 (protein)
chain: B2 chain with A22M, Q34M, V235M
modifications: Dicamba decarboxylase variant clone DC.4.111
Turning to B10, the “Dicamba Decarboxylase Activity” value in data set [1] is “displays an increase in dicamba decarboxylase activity”. In addition, the “2,5-DCP product” value in data set [2] is reported as “detected”. Besides, in data set [3], the CO2 product entry is reported as “detected”. Moreover, the 4-chloro-3-methoxy phenol product result in data set [4] is listed as “detected”.

B11: SEQ ID NO:111: Design variant of SEQ ID NO: 1 (protein)
chain: B2 chain with A22M, Q34M, V235M, V238I
modifications: Dicamba decarboxylase variant clone DC.4.112
As to B11, the “Dicamba Decarboxylase Activity” value in data set [1] is on record as “displays an increase in dicamba decarboxylase activity”. For the same molecule, the “2,5-DCP product” value in data set [2] is recorded as “detected”. Also, the CO2 product result in data set [3] is reported as “detected”. Besides, the 4-chloro-3-methoxy phenol product entry in data set [4] is “detected”.

B12: SEQ ID NO:112: Design variant of SEQ ID NO: 1 (protein)
chain: B2 chain with Q34V
modifications: Dicamba decarboxylase variant clone DC.4.113
For B12, in data set [1], the “Dicamba Decarboxylase Activity” value is reported as “displays an increase in dicamba decarboxylase activity”. In data set [2], the “2,5-DCP product” value is on record as “detected”. Moreover, in data set [3], the CO2 product entry was “detected”. Further, the 4-chloro-3-methoxy phenol product entry in data set [4] is recorded as “detected”.

B13: SEQ ID NO:41: amidohydrolase 2, Polaromonas sp. JS666 (protein, listed as Polaromonas sp.)
chain: MANGKIALEEHFATEETLMDSAGFVPDKDWPELRSRLLDIQDRRVRLMDEHGIETMILSLNAPAVQAIADSTRANETARRANDFLAEQVAKQPTRFRGFAALPMQDPELAARELERCVKELGFVGALVNGFSQDNRSAVPLYYDMAQYWPFWETVQALDVPFYLHPRNPLPSDARIYDGHAWLLGPTWAFGQETAVHALRLMGSGLFDKYPALKIILGHMGEGLPYSMWRIDHRNAWIKTTPKYPAKRKIVDYFNENFYLTTSGNFRTQTLIDAILEIGADRILFSTDWPFENIDHAADWFENTSISEADRKKIGWGNAQNLFKLNR
With B13, in data set [1], the “Dicamba Decarboxylase Activity” value is reported as “native dicamba decarboxylase activity”. Also, the “2,5-DCP product” value in data set [2] is listed as “detected”. Further, the CO2 product result in data set [3] is given as “detected”. Further, the 4-chloro-3-methoxy phenol product result in data set [4] is recorded as “detected”. Also, the “decarboxylation activity of dicamba” value in data set [6] is reported as “showed decarboxylation activity of dicamba”.
